This note sets out measurements from PMC3230775 (Nature structural & molecular biology, 2011).

Test [1] deals with p130Cas C-terminal domain (residues 645-870) (human) (UniProt P56945). In words: crystal structure.
Test [2] concerns the target T1, BCAR3 C-terminal domain (residues 502-825) (human, UniProt O75815 502-825).
T1 sequence: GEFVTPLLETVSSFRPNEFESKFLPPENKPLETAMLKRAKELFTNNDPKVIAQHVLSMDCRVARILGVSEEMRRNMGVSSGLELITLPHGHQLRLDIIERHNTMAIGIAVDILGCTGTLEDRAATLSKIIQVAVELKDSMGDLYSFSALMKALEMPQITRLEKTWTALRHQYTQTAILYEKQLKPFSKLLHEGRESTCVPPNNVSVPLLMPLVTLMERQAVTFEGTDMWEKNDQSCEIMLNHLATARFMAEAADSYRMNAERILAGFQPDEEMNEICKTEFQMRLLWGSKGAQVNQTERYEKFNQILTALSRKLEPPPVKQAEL
The experiment in a line: ITC. (In ITC the heat of successive injections is recorded.)

As to “NSP3 C-terminal domain (residues 382-703) (domain or fragment)”, the stoichiometry N (as a rule, a count of units in the complex or per binding partner) in test [1] came to 1.

B1: p130Cas C-terminal domain (residues 645-870) (domain or fragment)
chain: SQDSPDGQYENSEGGWMEDYDYVHLQGKEEFEKTQKELLEKGSITRQGKSQLELQQLKQFERLEQEVSRPIDHDLANWTPAQPLAPGRTGGLGPSDRQLLLFYLEQCEANLTTLTNAVDAFFTAVATNQPPKIFVAHSKFVILSAHKLVFIGDTLSRQAKAADVRSQVTHYSNLLCDLLRGIVATTKAAALQYPSPSAAQDMVERVKELGHSTQQFRRVLGQLAAA
Consider B1, for which the Kd (usually the equilibrium constant for the complex coming apart) in test [2] turned out to be 30 nM.
